Reference: patent US20100279930A1 (published 2010)
Like-named read-outs stand apart in the source and are kept apart here.

What was measured:
Assay in all cases: 125I-PP displacement
human Y4 receptor [1] = target: T1, human Y4 receptor (human, UniProt P50391 1-375)
human Y4 receptor [2] = target: T1, human Y4 receptor; remark: listed apart in the source
human Y4 receptor [3] = target: T1, human Y4 receptor; remark: listed apart in the source

T1 sequence (P50391 whole entry): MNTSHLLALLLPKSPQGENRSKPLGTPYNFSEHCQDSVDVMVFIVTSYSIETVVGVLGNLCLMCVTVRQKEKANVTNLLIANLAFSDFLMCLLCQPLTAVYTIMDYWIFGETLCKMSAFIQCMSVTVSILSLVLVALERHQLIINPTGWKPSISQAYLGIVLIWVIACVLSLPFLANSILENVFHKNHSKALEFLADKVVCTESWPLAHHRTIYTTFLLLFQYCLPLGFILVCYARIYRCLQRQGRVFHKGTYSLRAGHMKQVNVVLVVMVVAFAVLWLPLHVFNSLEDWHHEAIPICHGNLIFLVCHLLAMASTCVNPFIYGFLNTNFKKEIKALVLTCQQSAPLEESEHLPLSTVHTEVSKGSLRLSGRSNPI

Binder PAPLEPKYPGDDATPQEMARYAAELRRYINKLTRPRY [4058686] has an IC50 (human Y4 receptor [1]) of 0.076 nM.

With APLEPKYPGDNATPEELAKYAAELRRYINKLTRPRY [4058688] the IC50 (human Y4 receptor [1]) was 0.089 nM.

Work on HAPLEPVYPGDNATPEQMAQYAADLRRYINMLTRPRY [compound of SEQ ID NO:53 (code 6650)] yielded an IC50 (human Y4 receptor [2]) of 0.17 nM.

APLEPFYPGDNATPEQMAQYAAALRRYINMLTRPRY [6605] showed an IC50 (human Y4 receptor [2]) of 0.13 nM.

Work on PAPLEPVYPGDNATPEQMAQYAADLRRYINMLTRPRY [compound of SEQ ID NO:56 (code 6653)] yielded an IC50 (human Y4 receptor [2]) of 0.21 nM.

PLEPEYPGDDATPQEMARYAAELRRYINKLTRPRY [4058679] showed an IC50 (human Y4 receptor [1]) of 0.078 nM.

For AAPLEPHYPGDNATPEEMAKYAAELRRYINKLTRPRY [4058697], the IC50 (human Y4 receptor [1]) was 0.095 nM.

For PLEPEYPGDDATPEEMAKYAAELRRYINKLTRPRY [4058673], the IC50 (human Y4 receptor [1]) was 0.091 nM.

APLEPEYPGDDATPQEMARYAAELRRYINKLTRPRY [4058680] showed an IC50 (human Y4 receptor [1]) of 0.069 nM.

Work on APLEPEYPGDNATPEQMAQYAAELRRYINMLTRPRY [6458] yielded an IC50 (human Y4 receptor [2]) of 0.18 nM.

Work on AAPLEPVYPGDNATPEQMAQYAADLRRYINLLTRPRY [6656] yielded an IC50 (human Y4 receptor [2]) of 0.22 nM.

PAPLEPHYPGDDATPEEMAKYAAELRRYINKLTRPRY [4058701] was tested, and the IC50 (human Y4 receptor [1]) was 0.099 nM.

With APLEPVYPGDNATPEQMAQYAADLRRYINLLTRPRY [6430] the IC50 (human Y4 receptor [2]) was 0.41 nM.

Binder APLEPVYPGDNATPEQTAQYAADLRRYINTLTRPRY [6638] has an IC50 (human Y4 receptor [2]) of 0.5 nM.

For KPLEPVYPGDNATPEQMAQYAADLRRYINMLTRPRY (not fully specified; lauryl-lysine at position 1 (replaces Ala 1)) [compound of SEQ ID NO:11 (code 6435)], the IC50 (human Y4 receptor [2]) was 0.13 nM.

AKPLEPEYPGDDATPQEMARYAAELRRYINKLTRPRY [4058685] showed an IC50 (human Y4 receptor [1]) of 0.09 nM.

With PAPLEPKYPGDDATPQQMAKYAAELRRYINKLTRPRY [4058670] the IC50 (human Y4 receptor [1]) was 0.08 nM.

Binder APLEPVYPGDNATPEQMAQYAADLRKYINMLTRPRY [6431] has an IC50 (human Y4 receptor [2]) of 0.47 nM.

With YAPLEPEYPGDDATPQEMARYAAELRRYINKLTRPRY [4058684] the IC50 (human Y4 receptor [1]) was 0.087 nM.

For KPLEPVYPGDNATPEQMAQYAADLRRYINMLTRPRY [6434], the IC50 (human Y4 receptor [2]) was 0.25 nM.

Work on APLEPVYPGDNATPEQMAQYAADLKRYINMLTRPRY [6432] yielded an IC50 (human Y4 receptor [2]) of 0.36 nM.

Work on PAPLEPHYPGDNATPEELAKYAAELRRYINKLTRPRY [4058678] yielded an IC50 (human Y4 receptor [1]) of 0.09 nM.

Work on PAPLEPHYPGDDATPEELAKYAAELRRYINKLTRPRY [4058705] yielded an IC50 (human Y4 receptor [1]) of 0.097 nM.

Work on PLEPKYPGDNATPEELAKYAAELRRYINKLTRPRY [4058687] yielded an IC50 (human Y4 receptor [1]) of 0.096 nM.

AAPLEPEYPGDDATPQEMARYAAELRRYINKLTRPRY [4058683] gave an IC50 (human Y4 receptor [1]) of 0.081 nM.

With APLEPVYPGDNATPEQMAQYAADLRRYINMLTAPRY [6450] the IC50 (human Y4 receptor [2]) was 8.8 nM.

HAPLEPKYPGDDATPEELAHYYSELRRYINKLTRPRY [4058710] gave an IC50 (human Y4 receptor [1]) of 0.129 nM.

Work on PAPLEPEYPGDDATPQEMARYAAELRRYINKLTRPRY [4058681] yielded an IC50 (human Y4 receptor [1]) of 0.087 nM.

PAPLEPTYPGDNATPEELARYAAALRRYINKLTRPRY [4058738] showed an IC50 (human Y4 receptor [1]) of 0.055 nM.

APLEPVYPGDNATPEQMAQYAADLRRYINMLTKPRY [6452] was tested, and the IC50 (human Y4 receptor [2]) was 0.42 nM.

GPLEPVYPGDNATPEQMAQYAADLRRYINMLTRPRY [6636] was tested, and the IC50 (human Y4 receptor [2]) was 0.6 nM.

AAPLEPHYPGDNATPEELAKYAAELRRYINKLTRPRY [4058704] gave an IC50 (human Y4 receptor [1]) of 0.094 nM.

With APLEPVYPGDNATPEQMARYYASLRHYLNMLTRPRY [6462] the IC50 (human Y4 receptor [2]) was 0.18 nM.

In the case of HAPLEPKYPGDNATPEELAKYAAELRRYINKLTRPRY [4058692], the IC50 (human Y4 receptor [1]) is reported as 0.131 nM.

APLEPVYPGDNATPEQMAQYAADLRRYINMLTRPAY [6449] gave an IC50 (human Y4 receptor [2]) of 2.2 nM.

In the case of GAPLEPHYPGDNATPEEMAKYAAELRRYINKLTRPRY [4058698], the IC50 (human Y4 receptor [1]) is reported as 0.072 nM.

PLEPHYPGDNATPEELAKYAAELRRYINKLTRPRY [4058702] was tested, and the IC50 (human Y4 receptor [1]) was 0.086 nM.

PAPLEPKYPGDNASPEQMAKYAAELRRYINKLTRPRY [4058669] was tested, and the IC50 (human Y4 receptor [1]) was 0.043 nM.

GAPLEPEYPGDDATPQEMARYAAELRRYINKLTRPRY [4058682] was tested, and the IC50 (human Y4 receptor [1]) was 0.076 nM.

In the case of AKPLEPKYPGDNATPEELAKYAAELRRYINKLTRPRY [4058690], the IC50 (human Y4 receptor [1]) is reported as 0.071 nM.

Work on YAPLEPKYPGDNATPEELAKYAAELRRYINKLTRPRY [4058693] yielded an IC50 (human Y4 receptor [1]) of 0.077 nM.

Work on HAPLEPHYPGDNATPEEMAKYAAELRRYINKLTRPRY [4058699] yielded an IC50 (human Y4 receptor [1]) of 0.092 nM.

Work on GAPLEPKYPGDNATPEELAKYAAELRRYINKLTRPRY [4058691] yielded an IC50 (human Y4 receptor [1]) of 0.098 nM.

In the case of PAPLEPKYPGDDATPEELAHYYSELRRYINKLTRPRY [4058709], the IC50 (human Y4 receptor [1]) is reported as 0.083 nM.

PLEPEYPGDNATPEEMAKYAAALRRYINKLTRPRY [4058676] showed an IC50 (human Y4 receptor [1]) of 0.061 nM.

PLEPKYPGDDATPEELAHYYSELRRYINKLTRPRY [4058706] was tested, and the IC50 (human Y4 receptor [1]) was 0.084 nM.

Work on PLEPEYPGDNATPEEMARYAAELRRYINKLTRPRY [4058674] yielded an IC50 (human Y4 receptor [1]) of 0.082 nM.

With AAPLEPKYPGDDATPEELAHYYSELRRYINKLTRPRY [4058708] the IC50 (human Y4 receptor [1]) was 0.079 nM.

Work on APLEPHYPGDNATPEELAKYAAELRRYINKLTRPRY [4058703] yielded an IC50 (human Y4 receptor [1]) of 0.059 nM.

In the case of PLEPEYPGDNATPEEMAKYAADLRRYINKLTRPRY [4058675], the IC50 (human Y4 receptor [1]) is reported as 0.095 nM.

In the case of APLEPKYPGDDATPEELAHYYSELRRYINKLTRPRY [4058707], the IC50 (human Y4 receptor [1]) is reported as 0.089 nM.

With PLEPEYPGDNATPEELAKYAAELRRYINKLTRPRY [4058677] the IC50 (human Y4 receptor [1]) was 0.138 nM.

PAPLEPKYPGDNATPEELAKYAAELRRYINKLTRPRY [4058671] was tested, and the IC50 (human Y4 receptor [1]) was 0.105 nM.

Work on AAPLEPKYPGDNATPEELAKYAAELRRYINKLTRPRY [4058689] yielded an IC50 (human Y4 receptor [1]) of 0.098 nM.

APLEPHYPGDNATPEEMAKYAAELRRYINKLTRPRY [4058696] showed an IC50 (human Y4 receptor [1]) of 0.045 nM.

Work on PAPLEPKAPGDNATPEQMAKYAAELRRYINKLTRPRY [4058668] yielded an IC50 (human Y4 receptor [1]) of 0.074 nM.

Work on PAPLEPKYPGDNATPEQMAKYAAELRRYINLLTRPRY [4058169] yielded an IC50 (human Y4 receptor [3]) of 0.099 nM.

For AAPLEPSYPGDDATPQQMAHYYSELRRYINLLTRPRY [4058082], the IC50 (human Y4 receptor [3]) was 0.11 nM.

B1: 4058071 (protein)
chain: CAPLEPTYPGDNATPEQMARYAAALRRYINKLTRPRYCAPLEPTYPGDNATPEQMARYAAALRRYINKLTRPRY
B1 was tested, and the IC50 (human Y4 receptor [3]) was 0.143 nM.
